We go through 1 molecule from paper PMC7190724, “Improved GPCR ligands from nanobody tethering” (Nature Communications, 2020).

The subject of one assay is PTHR1. The experiment in a line: Flow cytometry binding to HEK293 expressing human PTHR1. Conditions: flow cytometry MFI, VHH-Alexafluor647, 1 h on ice; no plateau, estimate. The text has this:
Cells were pelleted by centrifugation and washed with PBS prior to analysis by flow cytometry (BD Accuri C6).
Supplementary Figure 4. […] Cells
(§1) (1 picture or pasted object on this page, not shown here)

In the next assay the test system is PTHR1_6E. The experiment in a line: Flow cytometry binding of VHH-Alexafluor647 to HEK293 expressing PTHR1_6E. More on the design: species or system human. To be noted: flow cytometry MFI, VHH-Alexafluor647, 1 h on ice. The protocol:
(§2) Suspensions of cells in PBS were stained for 1 h on ice in the presence of indicated concentrations of VHH probes functionalized with Alexafluor647. Cells were pelleted by centrifugation and washed with PBS prior to analysis by flow cytometry (BD Accuri C6). To select intact cells gating was performed on forward scatter/side scatter profiles for analysis (see Supplementary Fig. 4 for an example of the gating strategy). Data were analyzed using FlowJo version 7.6. The median fluorescent intensity (MFI) of stained cells was used to generate VHH binding dose response curves (Supplementary Fig. 4).
Supplementary Figure 4. Assessment of VHH binding to PTHR1 variants by flow cytometry. Cells dislodged from tissue culture plates using trypsinization were incubated with varied concentrations of VHHs sortagged with AlexaFluor647 on ice for 1 h. Cells were centrifuged, washed, and analyzed by flow cytometry via gating of intact cells (live gate) based on forward scatter/side scatter profiles (panel a). (b) Data points represent median fluorescent intensity values ( individual data points shown, n = 2 independent replicates per condition). Connecting curves are the result of fitting a sigmoidal dose - response model to the data points. Precise estimates for VHH PTHR binding cannot be provided since the […]
as §1
(Flow cytometry measures light scatter and fluorescence of single cells or particles in a stream.)

Another assay deals with T1, PTHR1GFP (Homo sapiens, UniProt Q03431).
T1 sequence (Q03431 27-593): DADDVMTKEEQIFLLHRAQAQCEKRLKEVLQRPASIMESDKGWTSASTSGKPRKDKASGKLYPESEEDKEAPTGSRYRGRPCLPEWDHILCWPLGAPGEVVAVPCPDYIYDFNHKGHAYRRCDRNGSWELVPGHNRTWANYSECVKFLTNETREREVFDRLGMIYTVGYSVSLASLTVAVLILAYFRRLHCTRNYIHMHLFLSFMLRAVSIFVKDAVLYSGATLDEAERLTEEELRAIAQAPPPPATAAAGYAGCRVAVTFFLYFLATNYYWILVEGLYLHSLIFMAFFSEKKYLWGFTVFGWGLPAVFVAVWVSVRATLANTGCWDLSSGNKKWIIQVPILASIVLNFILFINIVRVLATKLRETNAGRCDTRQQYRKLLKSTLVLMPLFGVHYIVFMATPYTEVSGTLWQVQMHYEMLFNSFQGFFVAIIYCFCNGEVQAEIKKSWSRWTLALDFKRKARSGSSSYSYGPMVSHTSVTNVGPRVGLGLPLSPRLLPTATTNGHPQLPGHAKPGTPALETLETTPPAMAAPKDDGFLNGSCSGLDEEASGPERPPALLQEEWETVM
As to the kind of experiment: Flow cytometry binding of VHH-Alexafluor647 to HEK293 expressing PTHR1GFP. Conditions: flow cytometry MFI, VHH-Alexafluor647, 1 h on ice; no plateau, estimate. As for the experimental part:
as §2
Supplementary Figure 1. […] HEK293 cell lines in suspension were incubated on ice with 100 nM VHH sortagged with Alexafluor647, pelleted by centrifugation, washed and analyzed. […]
PTHR1GFP. This weak staining is likely related to the inability of VHHGFP to tightly bind the pH-sensitive GFP variant known as pHluorin2 engrafted into the receptor(ref. 19, main text). c) HEK293 cells stably expressing PTHR1-GFP were treated with varied doses of the indicated peptides or conjugates and activation was assessed by measuring luminescence from a cAMP-activated luciferase variant. […]
Supplementary Figure 4. […] Cells were centrifuged, washed, and analyzed by flow cytometry via gating of intact cells (live gate) based on forward scatter/side scatter profiles (panel a). […]

The next assay deals with rat PTHR1 (rPTHR1). As to the kind of experiment: Flow cytometry binding of VHH-Alexafluor647 to HEK293 expressing rat PTHR1. Conditions: 100 nM VHH-Alexafluor647, on ice. As for the experimental part:
(§3) Fig. 3 Binding of VHHs to HEK293 cell lines stably transfected with PTHRs. a Analysis of VHH binding to PTHR1, PTHR2 and variants by flow cytometry. HEK293 cell lines in suspension were incubated on ice with 100 nM VHH sortagged with Alexafluor647, pelleted by centrifugation, washed and analyzed. Data for PTHR1-GFP is found in Supplementary Fig. 1. b Analysis of VHH binding with microscopy. Adherent HEK293 cells expressing human PTHR1 were stained on ice with 50 nM VHHPTHR-tetramethylrhodamine (TMR, red) and 30 nM PTH(1-20)-fluorescein (FAM, green) for 30 min. Following staining, cells were washed and treated with fixative in preparation for image acquisition either immediately after staining (0 min) or following a 15-min incubation in medium at room temperature (15 min). Nuclei (blue) were stained with DAPI. The scale bar (20 μm) is at the bottom left image and is applicable to each image in this panel. This experiment was repeated twice with similar results.
(§4) Suspensions of cells in PBS were stained for 1 h on ice in the presence of indicated concentrations of VHH probes functionalized with Alexafluor647. Cells were pelleted by centrifugation and washed with PBS prior to analysis by flow cytometry (BD Accuri C6). […] Data were analyzed using FlowJo version 7.6. […]

The next assay deals with PTHR2. As to the kind of experiment: Flow cytometry binding of VHH-Alexafluor647 to HEK293 expressing PTHR2. More on the design: species or system human. Conditions: 100 nM VHH-Alexafluor647, on ice. As for the experimental part: as §3, §4

B1: VHHPTHR: nanobody that recognizes PTHR1 itself, sequence from the literature (named 22A3) (antibody, V domains shown)
VH: EVQLVESGGGLVQAGGSLRLSCAASGNIFANNIMGWYRQPPGKEREFVAHVSHDGDSMYAVSVKGRFAISRKDATNLYLQMNSLKPEDTAIYFCRLLNIPTQGRMEGFWGQGTQVTVSS
As for B1, the half-maximal staining concentration in the assay with PTHR1, in the assay with PTHR1_6E and in the assay with PTHR1GFP was 100 to 200 nM throughout. Also, the “staining of cells” value is recorded as “bound” in the assay with rat PTHR1 (rPTHR1) and “binds to PTHR1 but not PTHR2” in the assay on PTHR2.
